Laboratory results as given in patent US20050026219.

Experiments:
[1] = system: oligopeptide Ac-Ile-Tyr-Gly-Glu-Phe-NH2 "M-2165" (Messrs. Bachem, MW 668.8)
[2] = system: T1, Raytide EL (protein-tyrosine-kinase substrate, MW 2476 Dalton, Messrs. Calbiochem)
T1 sequence: KKKGPWLEEEEEAYGWLDF

Substance	phosphorylation of the substrate, detected by RIfS (AMD sensor) through the fall of free anti-phosphotyrosine antibody [1]	phosphorylation of the substrate, detected by RIfS (diamino-PEG 2000 sensor) through the fall of free anti-phosphotyrosine antibody [1]	phosphorylation of the substrate, detected by RIfS through the fall of free anti-phosphotyrosine antibody [2]
p60c-src-kinase isolated from human cells (Messrs. Calbiochem)	The phosphorylation is very clearly detectable.	The phosphorylation is very clearly detectable.	–
Epidermal Growth Factor Receptor Kinase (EGF-RK) isolated from human A 431 carcinoma cells (Messrs. Sigma)	–	–	The phosphorylation with the alternative substrate (SEQ ID NO.:3) Raytide™ EL is clearly detectable.
